Measurements from patent publication US8497352B2, “Use of Wnt5-α peptide derivates for the treatment of melanoma and gastric cancer” (Wntresearch AB, priority 2008, dated 2013).

How the values were obtained:
[1] = test system: Wnt-5a-induced Ca^2+ signaling; assay: Determination of cytosolic free calcium levels (fura-2) in A2058 cells; assay type: cell-based, human; details: 0.1 μg/ml Wnt-5a
Method: Cells grown on a glass cover slip were incubated with 4 μM fura-2/AM in culture medium for 30 minutes at 37° C. (Dejmek et al., 2006). After fura-2 loading of the cells, the cover slips were washed and mounted in a specially designed chamber to which was added a calcium-containing medium (136 mM NaCl, 4.7 mM KCl, 1.2 mM MgSO4, 1.1 mM CaCl2, 1.2 KH2PO4, 5 mM NaHCO3, 5.5 mM glucose and 20 mM Hepes, pH 7.4). The chamber was then placed in a system consisting of a NIKON Diaphot microscope connected to a Photon Technology International (PTI) imaging system. The cells were first allowed to rest for 10 minutes before any stimulation was performed. Fura-2 fluorescence was then recorded continuously from the cells before and after the stimulations with either Wnt-5a, endothelin-1 or charbacol (as indicated in the legend to FIG. 8) using an excitation wavelength rapidly alternating between 340 and 380 nm, while the emission wavelength was set at 510 nm. The fluorescence intensity ratios (340/380 nm) were subsequently calculated and analyzed using the PTI Image Master Software. Statistical analysis—The Student's t-test for unpaired samples was used to analyze differences in the experiments, where *=p<0.05, **=p<0.01, and ***=p<0.001

PKC = assay: MARCKS phosphorylation (PKC activity) in A2058 cells, Western blot; assay type: cell-based, human; details: rWnt-5a 0.2 μg/ml
Method: The cells were either directly lysed in 1× Laemmli buffer containing DTT and boiled for 10 min, or lysed in buffer containing 50 mM Tris-HCl (pH 7.5), 1% Triton X-100, 100 mM NaCl, 10 mM MgCl2, 20% glycerol, 1 mM Na3VO4, and protease inhibitors (20 μg/ml aprotinin, 1 μg/ml leupeptin, 2.5 mM benzamidine, and 2 mM pefabloc). Cell treated with lysis buffer were centrifuged at 15,000 rpm for 5 min at 4° C. The protein content in each sample was determined and adjusted to ensure equal loading of protein in each lane. Thereafter, 50 mM DTT and 5× concentrated Laemmli buffer was added and the samples boiled for 5 min. The samples were separated by SDS polyacrylamide gel electrophoresis and subsequently transferred to PVDF membranes. For immunoblotting the membranes were blocked in PBS supplemented with 0.2% Tween 20 and 1% non-fat milk for Wnt-5a or 3% non-fat milk as for all other antibodies for 1 h. […] Finally, the Ab-antigen complexes were detected using enhanced chemiluminescence. […]
In the present study the level of PKC auto-phosphorylation (Weeraratna et al., 2002, Dissanayake et al., 2007) was not estimated since its relation to PKC kinase activity is unclear. Instead the effects of Wnt-5a and Box5 on the phosphorylation of the endogenous PKC substrate MARCKS were analyzed as a direct means of estimating the activity level of PKC in the melanoma cells. […]

B1: Wnt-5a: human recombinant Wnt-5a protein from R&D Systems (protein, UniProt P41221 62-380, looked up)
Protein Wnt-5a: IIGAQPLCSQLAGLSQGQKKLCHLYQDHMQYIGEGAKTGIKECQYQFRHRRWNCSTVDNTSVFGRVMQIGSRETAFTYAVSAAGVVNAMSRACREGELSTCGCSRAARPKDLPRDWLWGGCGDNIDYGYRFAKEFVDARERERIHAKGSYESARILMNLHNNEAGRRTVYNLADVACKCHGVSGSCSLKTCWLQLADFRKVGDALKEKYDSAAAMRLNSRGKLVQVNSRFNSPTTQDLVYIDPSPDYCVRNESTGSLGTQGRLCNKTSEGMDGCELMCCGRGYDQFKTVQTERCHCKFHWCCYVKCKKCTEIVDQFVCK
Cytosolic Ca^2+ signal in A2058 cells [1]: triggers a rapid cytosolic Ca^2+ signal
Effect on phosphorylation of MARCKS (PKC): increased phosphorylation
